Legend:
[1] = target: human SNAP-GLP-1R (human) (UniProt P43220); experiment: FRET or BRET
[2] = target: mouse GLP-1R (mouse) (UniProt O35659)
[3] = target: rat GLP-1R (rat) (UniProt P32301)
[4] = target: human SNAP-GLP-1R (human) (UniProt P43220)
[5] = target: mouse plasma proteins; experiment: EScalate equilibrium shift assay; binding of peptide to the proteins of human or mouse plasma; percentage of peptide unbound, determined in duplicate
[6] = target: human plasma proteins; experiment: as above

mouse GLP-1R (mouse), sequence (O35659 22-463): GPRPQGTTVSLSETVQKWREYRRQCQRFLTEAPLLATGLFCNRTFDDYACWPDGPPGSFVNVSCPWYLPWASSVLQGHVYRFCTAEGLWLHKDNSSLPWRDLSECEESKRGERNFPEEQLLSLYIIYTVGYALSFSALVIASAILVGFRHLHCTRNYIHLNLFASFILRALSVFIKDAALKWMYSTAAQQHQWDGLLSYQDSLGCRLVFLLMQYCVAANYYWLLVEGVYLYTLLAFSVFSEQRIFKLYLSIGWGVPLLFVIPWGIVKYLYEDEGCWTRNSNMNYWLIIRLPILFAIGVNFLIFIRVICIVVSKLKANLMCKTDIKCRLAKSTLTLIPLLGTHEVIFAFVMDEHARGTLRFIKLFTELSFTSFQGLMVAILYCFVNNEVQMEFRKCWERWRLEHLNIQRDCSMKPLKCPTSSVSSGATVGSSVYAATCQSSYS
human SNAP-GLP-1R (human), sequence (P43220 24-463): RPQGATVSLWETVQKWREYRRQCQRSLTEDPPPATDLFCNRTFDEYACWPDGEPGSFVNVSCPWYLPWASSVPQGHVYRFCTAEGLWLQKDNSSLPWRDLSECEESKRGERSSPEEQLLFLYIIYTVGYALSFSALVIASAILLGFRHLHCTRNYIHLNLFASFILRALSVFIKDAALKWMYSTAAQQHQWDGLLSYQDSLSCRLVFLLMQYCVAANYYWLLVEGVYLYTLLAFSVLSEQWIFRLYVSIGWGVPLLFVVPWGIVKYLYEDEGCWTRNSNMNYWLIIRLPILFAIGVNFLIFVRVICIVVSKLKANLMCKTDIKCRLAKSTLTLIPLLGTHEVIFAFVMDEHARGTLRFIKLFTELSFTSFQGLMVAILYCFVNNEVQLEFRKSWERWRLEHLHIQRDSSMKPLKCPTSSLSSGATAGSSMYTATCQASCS
rat GLP-1R (rat), sequence (P32301 22-463): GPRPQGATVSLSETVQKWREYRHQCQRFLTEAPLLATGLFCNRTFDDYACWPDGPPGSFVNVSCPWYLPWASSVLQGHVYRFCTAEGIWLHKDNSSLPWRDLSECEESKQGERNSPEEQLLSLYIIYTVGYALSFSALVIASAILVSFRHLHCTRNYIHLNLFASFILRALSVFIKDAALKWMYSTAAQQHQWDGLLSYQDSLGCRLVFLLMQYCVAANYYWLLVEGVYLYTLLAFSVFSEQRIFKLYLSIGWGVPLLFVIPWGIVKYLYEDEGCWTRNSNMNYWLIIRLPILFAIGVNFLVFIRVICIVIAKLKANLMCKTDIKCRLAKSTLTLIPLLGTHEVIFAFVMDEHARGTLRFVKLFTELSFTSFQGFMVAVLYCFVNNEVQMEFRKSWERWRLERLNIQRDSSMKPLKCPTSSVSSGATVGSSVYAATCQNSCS

In the case of D^3-exendin-4 (peptide), the pKd [1] is reported as 9.1 pKd (M), the cAMP, MIN6B1 cells (with IBMX), Emax [2] is reported as 101 % max and the cAMP, MIN6B1 cells (with IBMX), pEC50 [2] is reported as 11 pEC50 (M). The cAMP, INS-1 832/3 cells (with IBMX), Emax [3] was 100 % max, the cAMP, INS-1 832/3 cells (with IBMX), pEC50 [3] was 9 pEC50 (M) and the cAMP (1% FBS), HEK293-SNAP-GLP-1R cells, Emax [4] was 96 % max. For the same substance, the cAMP (1% FBS), HEK293-SNAP-GLP-1R cells, pEC50 [4] was 10.6 pEC50 (M).
F^1-exendin-4 (peptide) was tested, and the pKd [1] was 7.8 pKd (M), the cAMP, MIN6B1 cells (with IBMX), Emax [2] was 97 % max and the cAMP, MIN6B1 cells (with IBMX), pEC50 [2] was 9.2 pEC50 (M). The cAMP, INS-1 832/3 cells (with IBMX), Emax [3] was 97 % max, the cAMP, INS-1 832/3 cells (with IBMX), pEC50 [3] was 8.4 pEC50 (M) and the cAMP (1% FBS), HEK293-SNAP-GLP-1R cells, Emax [4] was 83 % max. The cAMP (1% FBS), HEK293-SNAP-GLP-1R cells, pEC50 [4] was 9 pEC50 (M).
With “[D^3,G^40,K^41.C16 diacid]exendin-4 (peptide)” the pKd [1] was 8.9 pKd (M), the cAMP, MIN6B1 cells (with IBMX), Emax [2] was 97 % max and the cAMP, MIN6B1 cells (with IBMX), pEC50 [2] was 10.8 pEC50 (M). For the same substance, the cAMP, INS-1 832/3 cells (with IBMX), Emax [3] was 101 % max, the cAMP, INS-1 832/3 cells (with IBMX), pEC50 [3] was 8.7 pEC50 (M) and the cAMP (1% FBS), HEK293-SNAP-GLP-1R cells, Emax [4] was 97 % max. For the same substance, the cAMP (1% FBS), HEK293-SNAP-GLP-1R cells, pEC50 [4] was 10.4 pEC50 (M), the unbound fraction (fu) [5] was 2.1% and the unbound fraction (fu) [6] was 2.2%.
With “[F^1,G^40,K^41.C16 diacid]exendin-4 (peptide)” the pKd [1] was 8.3 pKd (M), the cAMP, MIN6B1 cells (with IBMX), Emax [2] was 98 % max and the cAMP, MIN6B1 cells (with IBMX), pEC50 [2] was 7.9 pEC50 (M). The cAMP, INS-1 832/3 cells (with IBMX), Emax [3] was 41 % max, the cAMP, INS-1 832/3 cells (with IBMX), pEC50 [3] was 7.5 pEC50 (M) and the cAMP (1% FBS), HEK293-SNAP-GLP-1R cells, Emax [4] was 49 % max. The cAMP (1% FBS), HEK293-SNAP-GLP-1R cells, pEC50 [4] was 8.2 pEC50 (M), the unbound fraction (fu) [5] was 2.4% and the unbound fraction (fu) [6] was 2.1%.
For “[G^40,K^41.C16 diacid]exendin-4 (from UniProt P26349 48-87) (peptide)”, the unbound fraction (fu) [5] was 2.6% and the unbound fraction (fu) [6] was 2.3%.

— article PMC7262448
